Assay results: article PMC8797792
Square brackets hold non-standard residues; d marks the D form. Ends that are not written are not given here. pT = C[C@@H](OP(=O)(O)O)[C@H](N)C(=O)O; pS = N[C@@H](COP(=O)(O)O)C(=O)O

Molecular target: GST-Fbw7 (residues 263 to 707)-Skp1 complex, Q969H0
Assay: AlphaScreen or HTRF

IC50: 9.8 nM
Binder: EDIWKKFELLP[pT]PPL[pS]PSRR [Myc T58 degron peptide, diphosphorylated (pT58/pS62)]
